Measured values reported in the DeepSol protein solubility set.

test: soluble on expression in E. coli; label from the status in PepcDB or PDB records

Sequence	soluble on expression in E. coli
MGSDKIHHHHHHMHTDVNQLFAALWDDYVEMTPSAAKVHQLLAKGETIINDHIALRTFNIAKVNLSVLAKHFESLGYVACGDYDFEAKKLKAKHFEHPDPTQPKVFISELMVEAFSPELQAIVHGLVEQVDEAATTADNFLYSGRHWELDYATYEQLLAESEYAAWVAAFGYRANHFTVSINHLPGYNTILEVNETLKQGDFVLNSVGGEVKGSADVLLEQSSTMADKVNVAFKDVQKTIPSCFYEFALRYPKADGELYTGFVAASADKIFESTNNAG	not soluble
MSLTKPTIALTELVEKGADADLLKQMIQFVAQRMMEFDVEGLCGAGFDVKSPDRTNSRNGYRDRLWQTRAGDVDLKIPKLRQGNYFPGFLEPRRTAEKAMAAVIQEAYIQGVSTRSVDELVKAMGMTGISKSQVSRLAGEIDERVHAFLDRPLEGDWPYLWIDATYVKVREAGRIVSVVVIIAVAVNTDGGREVLGMRVGPSEAEPFWTDFLRSLMRRGLRGVKLVISDAHEGLKAAASKVFNATWQRCRVHFMRNAMAHVGKGQRTMVAALLRTVFAQDSRAECHQQWRLVADQLREKYPKIATLMDGCEDEVLAHMAFPKAHRQQLHSTNPLERLNAEIKRRTDVVGIFPNDPAITRLVGAMLLEQNDEWCLQRRYMQLEAFEAVSDNPQAKLSAVINEGHHHHHH	soluble
MPTFSLWLPAGSNNVHPCGDPYAHHLFMRCLYHAKHDPTMKFDVKTTNVNKTSQEFKNTGLRRMPGISAEESGETQTFETEDDILDFLEYLKPERGDDEEAENATCDLFRQFARFVKDVEHRDTAFNTELLRLDKYLSEQETKFLISDDVTHIDCLVLTRLHSIRVAAKMLKNYEIPADLSHVLDYLKAGYATEMFRVSCPSDQEIVLHWTELKDTPRLSAKDRAKLVREEPVFSFSV	not soluble
MKPSLRIYRYPPPPSQRTPCALTIGNFDGVHLGHQAILARVRQEARARGLVPAVMTFEPHPREYFATLNRRPELAPTRISGLRDKLQALAAAGIEQVAVERFDARLAEMSANAFIEDLLVAGLQTRWLLVGEDFRYGHKRSGDIDLLREAGLAHGFEVCTLADITDRQGHRISSSEVRTALAVGDLDRAAQLLGQPFHISGHVIHGRKLGRELGFPTMNLRVAPRCATRSGIYVVRVLGLQDRPLPAVASLGVRPTVEDRGRVLLEAHLLDESLDAYGKLVRVEFLHKLRDEEKFADLPSLTAAIAQDAQNARAYFAVHGL	not soluble
MTGPVTRADPTPGLRTGRRPGNPDTRSRILAAARKLFAQNGFDKTSVRSVATGAGVDSALIHHYFGTKRELFLASVDIPVDPTQVIAPVLDIPTGEVGSHLARAVFSVWESPHKPAVVAAFRSAMAGNEPNLIRTFLLEVVLRDLGPRVDEPPGTGMLRMQLVASQMAGVLVTRYILEFEPLASLPVDDLVAIVGPTLQRYLTGALP	not soluble
MSDIEVFELDDNFDPLEDIGLVDEEDIEHHDYQMPIPDAELSVVPEPVQLTPREKMDKLIAGIPGHKQRIVEVIRICEEPLTASEIEERLNDTYPQSASVYDAARIADLLVEAEGLVRLNAEEGADEETVAAPKTDTEHPEADVDAVVTPHAGVDETGDYLEVQPPEPSRYVATDEGLAFVAAMTDMAPVMELLEKEPRYLPIYERILRMTSNEEGCGKAELNKAIDSDELCQEPRRYTEYFLFRLQEVAAVRWNRVWYATDLGTSALNSNIFTK	not soluble
MITFEKVTVENESVVKEMFKSHSLGEKKVQYCVKVDDTYIGVIDYSVQEERAVLSQLIIHFDYQGYGYGTNTYFTFEEMMKQRNVKEIKVLKEKLTEKAKSFIESFGFTSEDEEYVKKI	not soluble
MGSDKIHHHHHHMTSTPGISDSLLSSMNGSGANNNTSAISETQDRFMKLLIAQMKNQDPLNPMDNAEVTSQMAQLSTVTGIEKMNASLSTFISSMQATQALQASSLIGNTVLVEGNSTYLAPAETEGESAAYLGVELPIGADKLTVNIKNGAGNVVKTITVTNQPAGISSLGWNGYGDDGTKLPDGRYTIEATATTGNSSVASTPLSYEQVMSVSTGSDGVKLNLSNLAAITTDQIKQIF	not soluble
MAQVGETEVVAGNVRDIVNRLSRDMTNRNPFTVHQQVERRAPPPQPQAQIYVATYAYSSKQDDELSFVVGDLIELISDVEDGWSKGKLKSTGAVGMFPTNFVTLKPTPSTSAAAVAPAASASTSAGSAARTPAKSIGSEVVMRSEPKAIDRTPSTIISDPAPVLKALETKFSSTFASSAASASTDAETTKTKEMARVKFVYNPQHDDELALKEIDMLINITNKNCGDAGWFEGELHGKKGLFPDNFVELVQVPLGTESGARHGSISRQATLTFVSHKPPPVNPPQPAVPPKPAKISVVRRGFIEKIEKKMFHFISGNN	soluble
MGSDKIHHHHHHMRSFTQSSKPIFKDHIVQQSSLVANNYRFIGPRLIDNTPVLFGSFSVVQLNPHLILHTADVINRHNMKTQNLLDSAIKLAIVVSGNAHISFGHQELHLGESQPASLIALTEPTMFTRIGKRDEYERTITLTFDREWLYGNMMDTVGDWQAIHDFTQTHLATHLWTPSRQARAIALQTLDANPCQTPLQRLYLETQCMSLIIEAFTSLTASVAQEKSSGVTLRGYHRIQQIRDMLESGSADHLSMSEIAKSVNMSESTLQRHFRQTFNMSVFEYLRNCRLQRAMLALQKDGIGIAQAASIAGYNSPANFATALRRAFGITPGQLKDRF	not soluble
MVTIVWKESKGTAKSRYKARRAELIAERRSNEALARKIALKLSGCVRADKAASLGSLRCKKADECSGSICLPNVAIYAAGYRKSKQLTAR	not soluble
MFRRIFDAFNFMGSDEESTAAPVDQEGQEQLIDEDGWVNFNHPTESGDSDEFAFIENPEILEMGDETTIEVEMRTTPCPEVEAIKRREEYNLAKAKTAFRNHLESVMFADPDSGKDVRTFKSTHGSGRSVPTASGSIRRLNTQSQRSKKSSGKSNDRKTHRVSDLQLADA	not soluble
MRLEDEIKQVKAFKNDYNKAVVNLIFTYNWLESSSKAFFKDFDLTSQQFNILRILKGQHPNPSTINLLRDRMLDKMCDASRLVERLRIKGLVERSQASSDKRAVDIFITKKGEELLAKIEVEFPAFEEKLHTLSAEEIVVFNNLLDKLRG	not soluble
MEPKRSRLVVCAPEPSHAREFPDVAVFSGGRANASQAERLARAVGRVLADRGVTGGARVRLTMANCADGPTLVQINLQVGDTPLRAQAATAGIDDLRPALIRLDRQIVRASAQWCPRPWPDRPRRRLTTPAEALVTRRKPVVLRRATPLQAIAAMDAMDYDVHLFTDAETGEDAVVYRAGPSGLRLARQHHVFPPGWSRCRAPAGPPVPLIVNSRPTPVLTEAAAVDRAREHGLPFLFFTDQATGRGQLLYSRYDGNLGLITPTGDGVADGLA	soluble
MGSDKIHHHHHHMLTKSSTELVRQQNSALVLAALRRKGSLSHTEIAAQTGLASATISVITAELERSGIIAKTEQHVQGGRGRPRVLFEPRRGCGYVIVVRISSDVVQYSLADYGGILLDRFEDARSHDLRGTAAFGEVLAAALERLLVRSNISKDEVLAISISSKGLVAGGGARLIWSPVFGREQLDFVELLRPAWRARIMLSNESLLVAHALAVREEERERGFHALAAVSLGHSIGLGLARRGKSGELDVSAPDFGHMLHQASAGLCRCGSYGCIEAAAGFYGILRTAFEVPSDTIPAKFVPLSEVDKIAASARQGNRMGGYAFRQAGLALGNGISRMLSLYEPMPIFVTGPGTRYFDLLEKGLEEGLAHSLQVRLQGMPQIRVVPDEQRLVFDGHLNRALGAIDGDIAAAGHP	not soluble
MTLPMQETRFSILLDELAAKQEAAIAPHLLADGTKVWIRKAGRHNARWRYALLGMVARYLKLGVLKPVPSLGGEPAIATESKRLYELRSAGIAVPELLAVRKNALMFGNLEGIPLDAQIRQEAEAGKSDAWLAGLEAIARVHKKRQFLSQAFARNMMSDGKNISFLDFEDDPSEVLTIAQCQARDWLCYIHSTALILKNGGLLEAAAEKWGGVLSDQPAEIQKLIAATVKPILPIRRLEHPRWGRDALRLAASISLISLADMPP	not soluble
